Measured values as given in patent US6274703.
Read-outs that look alike come from different tables or passages of the source.

Key:
[1] = target: TIMP-2 (Homo sapiens (Human)) (UniProt P16035); test: competition with 125I-labelled WT GelA-CTD on TIMP-2 coated wells; mutant Ki over WT Kd
[2] = target: TIMP-2 (Homo sapiens (Human)) (UniProt P16035); test: competition with 125I-labelled WT GelA-CTD on TIMP-2 coated wells; against WT
[3] = target: TIMP-2 (Homo sapiens (Human)) (UniProt P16035); test: as above; remark: listed apart in the source
[4] = target: TIMP-2 (Homo sapiens (Human)) (UniProt P16035); test: self competition with 125I-labelled WT GelA-CTD on TIMP-2 coated wells

FLAG GelA-CTD mutant #250 Trp^574→Ala (from UniProt P08253)
Ki/Kd [1]: > 500

FLAG GelA-CTD mutant #41 Asp^615→Ala (from UniProt P08253)
fold loss in TIMP-2 binding [2]: > 100 fold
Ki/Kd [1]: 300

FLAG GelA-CTD mutant #31 Lys^579→Ala (from UniProt P08253)
Ki/Kd [1]: 6

FLAG GelA-CTD mutant #247 Lys^646→Ala (from UniProt P08253)
Ki/Kd [1]: > 500
fold loss in TIMP-2 binding [3]: > 100 fold

FLAG GelA-CTD mutant #28 Asp^569→Ala (from UniProt P08253)
Ki/Kd [1]: 8

FLAG GelA-CTD mutant #252 Tyr^636→Ala (from UniProt P08253)
Ki/Kd [1]: 10

FLAG GelA-CTD mutant #257 Gly^651→Ala (from UniProt P08253)
Ki/Kd [1]: 3

FLAG GelA-CTD mutant #255 Phe^650→Ala (from UniProt P08253)
Ki/Kd [1]: 8

FLAG GelA-CTD mutant #258 Asp^656→Ala (from UniProt P08253)
Ki/Kd [1]: 10

FLAG GelA-CTD double mutant #46 Glu^641→Ala + Gly^651→Arg (from UniProt P08253)
fold loss in TIMP-2 binding [2]: > 100 fold
Ki/Kd [1]: > 500

FLAG GelA-CTD mutant #39 Lys^604→Ala (from UniProt P08253)
Ki/Kd [1]: 25

FLAG GelA-CTD mutant #234 Arg^590→Ala (from UniProt P08253)
fold loss in TIMP-2 binding [2]: > 100 fold
Ki/Kd [1]: > 500
fold loss in TIMP-2 binding [3]: > 100 fold

FLAG GelA-CTD mutant #229 Lys^576→Ala (from UniProt P08253)
Ki/Kd [1]: > 500
fold loss in TIMP-2 binding [3]: > 100 fold

FLAG GelA-CTD fusion protein, wild type (from UniProt P08253)
Ki/Kd [4]: 1

FLAG GelA-CTD mutant #259 Asn^611→Ala (from UniProt P08253)
Ki/Kd [1]: 3
